Measurements: patent US20170362322A1 (published 2017)
Substitutions are numbered along the chain they refer to. Read-outs that look alike come from different tables or passages of the source. Values belong to the binder of their own block, whether it stands above or below them.

How the values were obtained:
B7-H3 [1] = biological target: T1, B7-H3 (human); experiment: competition ELISA (phage)
T1 chain: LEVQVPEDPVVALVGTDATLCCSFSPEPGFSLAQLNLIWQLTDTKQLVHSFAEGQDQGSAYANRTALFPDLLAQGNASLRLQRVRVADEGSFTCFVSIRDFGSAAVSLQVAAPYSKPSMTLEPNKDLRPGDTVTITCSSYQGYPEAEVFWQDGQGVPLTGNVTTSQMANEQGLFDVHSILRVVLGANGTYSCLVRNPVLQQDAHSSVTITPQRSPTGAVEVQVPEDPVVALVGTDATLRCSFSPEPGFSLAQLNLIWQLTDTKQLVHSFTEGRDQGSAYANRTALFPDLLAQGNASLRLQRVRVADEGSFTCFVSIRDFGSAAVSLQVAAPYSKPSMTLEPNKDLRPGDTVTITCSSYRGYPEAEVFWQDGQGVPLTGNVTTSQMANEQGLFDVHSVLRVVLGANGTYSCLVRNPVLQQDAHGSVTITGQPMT

B7-H3 [2] = biological target: T1, B7-H3; experiment: competition ELISA (phage)
B7-H3 [3] = biological target: T1, B7-H3; experiment: Octet BLI; conc. 1.56 nM
B7-H3 [4] = biological target: T1, B7-H3; experiment: Octet BLI; conc. 12.5 nM
B7-H3 [5] = biological target: T1, B7-H3; experiment: Octet BLI; conc. 25 nM
B7-H3 [6] = biological target: T1, B7-H3; experiment: Octet BLI; conc. 50 nM
B7-H3 [7] = biological target: T1, B7-H3; experiment: Octet BLI; conc. 3.13 nM
B7-H3 [8] = biological target: T1, B7-H3; experiment: Octet BLI; conc. 6.25 nM
B7-H3 [9] = biological target: T1, B7-H3; experiment: Octet BLI; conc. 100 nM

IC50 (B7-H3 [1]): 11.4 nM
B1: 2-8 (antibody, V domains shown)
VH: QVQLQQSGAEVKKPGASVKVSCKASGYTFTNYDINWVRQAPGQGLEWIGWIFPGDGSTQYNEKFKGRATLTTDTSTSTAYMELSSLRSEDTAVYFCARQTTGTWFAYWGQGTLVTVSS
VL: DIVLTQSPATLSLSPGERATLSCRASQSISEYLHWYQQKPGQAPRLLIKHASQSISGIPARFSGSGSGSDFTLTISSLEPEDFAVYYCQNGHSFPLTFGGGTKVEIKR

IC50 (B7-H3 [2]): 8.8 nM
B2: 1-1 (antibody, V domains shown)
VH: B1 VH with E62G
VL: B1 VL with E31P, H50Y, I55W

IC50 (B7-H3 [2]): 5.1 nM
B3: 1-5 (antibody, V domains shown)
VH: B1 VH
VL: B1 VL with E31H, H50Y, I55L

Kd (B7-H3 [3]): 0.0135 nM
Kd (B7-H3 [4]): 0.0234 nM
Kd (B7-H3 [5]): 0.0309 nM
Kd (B7-H3 [6]): 0.0401 nM
Kd (B7-H3 [7]): 0.0218 nM
Kd (B7-H3 [8]): 0.0179 nM
Kd (B7-H3 [9]): 0.0884 nM
B4: 8 (2-8Ig) (antibody, V domains shown)
VH: B1 VH
VL: B1 VL

IC50 (B7-H3 [2]): 5.6 nM
B5: 1-4 (antibody, V domains shown)
VH: B1 VH with E62P
VL: B1 VL with E31T, H50E

IC50 (B7-H3 [1]): 85 nM
B6: 2-5 (antibody, V domains shown)
VH: B1 VH with G102S
VL: B1 VL with S28I, E31D, H50Y, S54L

IC50 (B7-H3 [2]): 5.6 nM
B7: 1-7 (antibody, V domains shown)
VH: B1 VH with F29Y
VL: B1 VL with E31P

IC50 (B7-H3 [2]): 10 nM
B8: 1-2 (antibody, V domains shown)
VH: B1 VH with K63T
VL: B1 VL with E31K, H50Y, S52N, S56R
